These results are taken from patent publication US20230341394A1.

For this assay, the target named is CR3022 IgG antibody.

On to “anti-IgG Nanobody (Chromotek Nano-Secondary alpaca anti-human IgG) (VHH)”, for which the assay signal (TR-FRET ratio) (TR-FRET ratio) was determined as 0.6.
As for anti-IgG antibody (Bethyl, A80-104A), the figure is 0.25.
